The values that follow come from publication PMC8163800, “Extreme parsimony in ATP consumption by 20S complexes in the global disassembly of single SNARE complexes” (Nature Communications, 2021).

Sequences and labels used below:
B1: SNAP-tag-αSNAP labelled with BG-Alexa647 (natural protein, bovine, UniProt P81125 1-295, looked up)
chain: MDNSGKEAEAMALLAEAERKVKNSQSFFSGLFGGSSKIEEACEIYARAANMFKMAKNWSAAGSAFCQAAHVHLQLQSKHDAATCFVDAGNAFKKADPQEAINCLMRAIEIYTDMGRFTIAAKHHISIAEIYETELVDIEKAIAHYEQSADYYKGEESNSSANKCLLKVAGYAAQLEQYQKAIDIYEQVGTNAMDSPLLKYSAKDYFFKAALCHFCIDMLNAKLAVQKYEELFPAFSDSRECKRIKKLLEAHEEQNVDSYTEAVKEYDSISRLDQWLTTMLLRIKKTIQGDEEDLR
modifications: BG-Alexa647 dye on the SNAP tag
notes: alpha-soluble NSF attachment protein (αSNAP), bovine; also called SNAP-tag-fused αSNAPs; Alexa647-labeled αSNAP; source: expressed in LB medium with IPTG, purified (Ni-NTA, Superdex 200); not shown: SNAP tag (GGSGGSG linker), N-terminal, kept
B2: NSF-SNAP tag (wild-type NSF with a C-terminal SNAP tag), labelled hexamer (enzyme, Chinese hamster)
chain: MAGRSMQAARCPTDELSLSNCAVVSEKDYQSGQHVIVRTSPNHKYIFTLRTHPSVVPGSVAFSLPQRKWAGLSIGQEIEVALYSFDKAKQCIGTMTIEIDFLQKKNIDSNPYDTDKMAAEFIQQFNNQAFSVGQQLVFSFNDKLFGLLVKDIEAMDPSILKGEPASGKRQKIEVGLVVGNSQVAFEKAENSSLNLIGKAKTKENRQSIINPDWNFEKMGIGGLDKEFSDIFRRAFASRVFPPEIVEQMGCKHVKGILLYGPPGCGKTLLARQIGKMLNAREPKVVNGPEILNKYVGESEANIRKLFADAEEEQRRLGANSGLHIIIFDEIDAICKQRGSMAGSTGVHDTVVNQLLSKIDGVEQLNNILVIGMTNRPDLIDEALLRPGRLEVKMEIGLPDEKGRLQILHIHTARMRGHQLLSADVDIKELAVETKNFSGAELEGLVRAAQSTAMNRHIKASTKVEVDMEKAESLQVTRGDFLASLENDIKPAFGTNQEDYASYIMNGIIKWGDPVTRVLDDGELLVQQTKNSDRTPLVSVLLEGPPHSGKTALAAKIAEESNFPFIKICSPDKMIGFSETAKCQAMKKIFDDAYKSQLSCVVVDDIERLLDYVPIGPRFSNLVLQALLVLLKKAPPQGRKLLIIGTTSRKDVLQEMEMLNAFSTTIHVPNIATGEQLLEALELLGNFKDKERTTIAQQVKGKKVWIGIKKLLMLIEMSLQMDPEYRVRKFLALLREEGASPLDFD
modifications: BG-Alexa647 or BG-DY549 dye on the SNAP tag
notes: N-ethylmaleimide sensitive factor (NSF), Chinese hamster, wild type; also called DY549-labeled NSF; SNAP-tag-labeled WT; source: expressed from pET28a in autoinduction LB medium, purified (Ni-NTA, Superdex 200); not shown: SNAP tag (GGSG linker), C-terminal, kept

The target in data set [1] is B2. The data set is described as follows: single-molecule fluorescence co-localisation with counting of photobleaching steps (TIRF); SNARE vesicles (1:30,000 protein/lipid) held on NeutrAvidin; 100 nM SNAP-tag-αSNAP, then 1 nM Dylight549-labelled NSF with 1 mM ATP and 1 mM EDTA; H50N50 buffer. The settings on record: both partners purified.
Data set [2] deals with the molecule itself. The data set is described as follows: SEC; Superdex 200 16/600 in NSF buffer (50 mM HEPES pH 7.4, 150 mM NaCl, 1 mM DTT, 1 mM ATP, 1 mM EDTA, 10% glycerol).

Turning to B1, the binding result in data set [1] is “binds”. As a reminder, the stoichiometry N is the number of molecules, sites or subunits per partner or assembly. For B2, the “stoichiometry N” value in data set [2] was 6.
